Experimental data from paper PMC10760096.

Biological target: CH848-d949 DE3 design SOSIP Env (HIV-1)
Assay: SPR

B1: DH270 lineage intermediate I5.6 Fab (Fab, V domains shown)
VH: QVQLVQSGAEVKKPGASVKVSCKASGYTFTDYYIHWVRQAPGQGLEWMGWINPNTGRTNSAQKFQGRVTMTRDTSISTAYMELSRLRSDDTAVYYCARGGWIGLYYDSSGYPNFDYWGQGTLVTVSS
VL: QSALTQPASVSGSPGQSITISCTGTSYDVGSYNLVSWYQQHPGKAPKLMIYEVSKRPSGVSNRFSGSKSGNTASLTISGLQAEDEADYYCCSYAGSSTVVFGGGTKLTVL
Work on B1 yielded a fold change in association rate (ka) against unmutated CH848-d949 of 45 fold.
